Laboratory results published in paper doi:10.1101/2020.11.23.394270.

Target: T1, human urotensin II receptor (hUT), stably expressed in HEK 293 cells (human) (UniProt Q9UKP6)
T1 sequence: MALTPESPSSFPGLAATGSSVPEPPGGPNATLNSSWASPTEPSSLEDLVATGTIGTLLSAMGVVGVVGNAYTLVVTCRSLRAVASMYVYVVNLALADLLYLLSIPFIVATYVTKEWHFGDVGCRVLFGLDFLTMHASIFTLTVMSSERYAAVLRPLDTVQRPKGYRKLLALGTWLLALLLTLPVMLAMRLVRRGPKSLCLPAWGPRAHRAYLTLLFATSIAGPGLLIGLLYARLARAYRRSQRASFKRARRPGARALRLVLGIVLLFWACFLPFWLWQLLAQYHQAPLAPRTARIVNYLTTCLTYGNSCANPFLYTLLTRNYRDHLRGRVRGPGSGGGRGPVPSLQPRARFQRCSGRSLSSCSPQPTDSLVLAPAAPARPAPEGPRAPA

Substance: human urotensin II (ligand)
- Emax of β-arrestin 2 conformational change (BRET biosensor), HEK 293-hUT cells: 100%
